Measurements as given in PMC7781312 (bioRxiv, 2021).
Non-standard residues stand in square brackets, D forms with d. Primed or numbered codes have the meaning given here. No end group written: not given here. PEG6′ = PEG spacer between stem peptide and Lys-biotin; Biotin′ = not defined here

Columns and labels:
[1] = biological target: T1, biotinylated HKU5 S stem helix peptide (Bat coronavirus HKU5 (A3EXD0), UniProt A3EXD0); assay: BLI
T1 chain: DFKEELEEFFKNVSS[PEG6′]K-{Biotin′}

[2] = biological target: T2, biotinylated SARS-CoV/SARS-CoV-2 S stem helix peptide (SARS-CoV-2 / SARS-CoV, identical …, UniProt P0DTC2); assay: BLI
T2 chain: SFKEELDKYFKNHTS[PEG6′]K-{Biotin′}

[3] = biological target: T3, biotinylated OC43 S stem helix peptide (HCoV-OC43 (Q696P8), UniProt Q696P8); assay: BLI
T3 chain: DFKEELDQWFKNQTS[PEG6′]K-{Biotin′}

[4] = biological target: T4, biotinylated MERS-CoV S stem helix peptide (MERS-CoV EMC/2012 (AFS88936), UniProt K0BRG7); assay: BLI
T4 chain: DFQDELDEFFKNVST[PEG6′]K-{Biotin′}

[5] = biological target: T5, biotinylated HKU4 S stem helix peptide (Bat coronavirus HKU4 (A3EX94), UniProt A3EX94); assay: BLI
T5 chain: DFKDELEEFFKNVTS[PEG6′]K-{Biotin′}

[6] = biological target: T6, biotinylated mouse hepatitis virus S stem helix peptide (Murine hepatitis virus A59 (P11224), UniProt P11224); assay: BLI
T6 chain: DFKEELDKWFKNQTS[PEG6′]K-{Biotin′}

[7] = biological target: T7, SARS-CoV/SARS-CoV-2 S stem helix peptide (crystallised) (SARS-CoV-2 / SARS-CoV, identical …, UniProt P0DTC2); assay: crystal structure
T7 chain: SFKEELDKYFKNHTS

[8] = biological target: T8, MERS-CoV S stem helix peptide, residues 1230-1244 (crystallised) (MERS-CoV, UniProt K9N5Q8); assay: crystal structure
T8 chain: DFQDELDEFFKNVST

[9] = biological target: T9, MERS-CoV S stem helix peptide, residues 1230-1240 (crystallised) (MERS-CoV (EMC/2012 numbering), UniProt K9N5Q8); assay: crystal structure
T9 chain: DFQDELDEFFK

[10] = biological target: T10, HKU4 S stem helix peptide, residues 1231-1245 (crystallised) (bat coronavirus HKU4, UniProt A3EX94); assay: crystal structure
T10 chain: DFKDELEEFFKNVTS

Measured: binding result

B1: B6 monoclonal antibody (recombinant IgG with human constant regions) (antibody, V domains shown)
VH: EVQLQQSGPVLVKPGASVRMSCKASGYTITDYYLNWVKQSHGKSLEWLGVLNPYSGGSLYSQTFKGKATLTVDRSSSTAYLELNSLTSEDSAVYYCARQLGRGNGLDYWGQGTSVTVSS
VL: NIMMTQSPSSLAVSAGEKVTMSCKSSQSVLHSSDQKNYLAWYQQKPGQSPKLLIYWASTRESGVPDRFTGSGSGTDFTLTISSVQAEDLAVYFCHQYLSSYTFGGGTKLEIK
binds: [1] | [2] | [3] | [4] | [5] | [6]

B2: B6 Fab fragment (Fab, V domains shown)
VH: B1 VH
VL: B1 VL
binds: [1] | [2] | [3] | [4] | [5] | [6] | [7] | [8] | [9] | [10]
